Results on 1 molecule are retold here after publication PMC2880403 (Journal of molecular biology, 2010).

In the test the target is T1, DsbA C33S (Escherichia coli, UniProt P0AEG4 20-208, C33S).
T1 sequence (looked up): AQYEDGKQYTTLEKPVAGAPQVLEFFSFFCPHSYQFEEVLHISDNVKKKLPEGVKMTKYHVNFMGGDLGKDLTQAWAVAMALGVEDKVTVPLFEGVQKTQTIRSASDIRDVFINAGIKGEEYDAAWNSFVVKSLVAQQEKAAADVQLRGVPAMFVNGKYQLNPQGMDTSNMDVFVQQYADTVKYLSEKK
The test is described as follows: absorbance titration at 500 nm.

B1: His-tagged "wildtype" DsbB containing mutations of nonessential cysteines (C8A, C49V) (enzyme, Escherichia coli, UniProt P0A6M2 1-176, looked up)
chain: MLRFLNQASQGRGAWLLMAFTALALELTALWFQHVMLLKPCVLCIYERVALFGVLGAALIGAIAPKTPLRYVAMVIWLYSAFRGVQLTYEHTMLQLYPSPFATCDFMVRFPEWLPLDKWVPQVFVASGDCAERQWDFLGLEMPQWLLGIFIAYLIVAVLVVISQPFKAKKRDLFGR
As for B1, the binding result is listed as “binds”.
